Test results: patent publication US20220017622A1 (Pfizer, published 2022)
Numbering of substitutions follows the chain as printed.

T1: human B7-H4 on cells (human, UniProt Q7Z7D3 25-282)
T1 sequence (looked up): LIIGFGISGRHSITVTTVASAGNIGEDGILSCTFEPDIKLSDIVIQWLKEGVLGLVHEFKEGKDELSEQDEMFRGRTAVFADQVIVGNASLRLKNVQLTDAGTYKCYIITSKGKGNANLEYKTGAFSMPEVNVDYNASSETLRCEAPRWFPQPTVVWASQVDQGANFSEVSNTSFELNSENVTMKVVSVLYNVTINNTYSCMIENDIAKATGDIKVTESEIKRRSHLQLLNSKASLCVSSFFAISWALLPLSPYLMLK

B1: B7-H4xCD3 bispecific antibody 1168 (bispecific antibody, IgG2)
heavy 1: EVQLLESGGGLVQPGGSLRLSCAASGFTFSSYAMSWVRQAPGKGLEWVSAISGGGGSTYYADSVKGRFTISRDNSKNTLYLQMNSLRAEDTAVYYCARDIQWYGESTLFDYWGQGTLVTVSSASTKGPSVFPLAPCSRSTSESTAALGCLVKDYFPEPVTVSWNSGALTSGVHTFPAVLQSSGLYSLSSVVTVPSSNFGTQTYTCNVDHKPSNTKVDKTVERKCEVECPECPAPPVAGPSVFLFPPKPKDTLMISRTPEVTCVVVAVSHEDPEVQFNWYVDGVEVHNAKTKPREEQFNSTFRVVSVLTVVHQDWLNGKEYKCKVSNKGLPSSIEKTISKTKGQPREPQVYTLPPSREEMTKNQVSLTCEVKGFYPSDIAVEWESNGQPENNYKTTPPMLDSDGSFFLYSKLTVDKSRWQQGNVFSCSVMHEALHNHYTQKSLSLSPG
light 1: DIQMTQSPSSLSASVGDRVTITCRASQSTRSWLAWYQQKPGKAPKLLIYKASSLESGVPSRFSGSGSGTDFTLTISSLQPEDFATYYCQQYGSYSRTFGQGTKVEIKRTVAAPSVFIFPPSDEQLKSGTASVVCLLNNFYPREAKVQWKVDNALQSGNSQESVTEQDSKDSTYSLSSTLTLSKADYEKHKVYACEVTHQGLSSPVTKSFNRGEC
heavy 2: EVQLVESGGGLVQPGGSLRLSCAASGFTFSDYYMTWVRQAPGKGLEWVAFIRNQARGYTSDHNPSVKGRFTISRDNAKNSLYLQMNSLRAEDTAVYYCARDRPSYYVLDYWGQGTTVTVSSASTKGPSVFPLAPCSRSTSESTAALGCLVKDYFPEPVTVSWNSGALTSGVHTFPAVLQSSGLYSLSSVVTVPSSNFGTQTYTCNVDHKPSNTKVDKTVERKCRVRCPRCPAPPVAGPSVFLFPPKPKDTLMISRTPEVTCVVVAVSHEDPEVQFNWYVDGVEVHNAKTKPREEQFNSTFRVVSVLTVVHQDWLNGKEYKCKVSNKGLPSSIEKTISKTKGQPREPQVYTLPPSREEMTKNQVSLTCLVKGFYPSDIAVEWESNGQPENNYKTTPPMLDSDGSFFLYSRLTVDKSRWQQGNVFSCSVMHEALHNHYTQKSLSLSPGK
light 2: DIQMTQSPSSLSASVGDRVTITCTSSQSLFNVRSQKNYLAWYQQKPGKAPKLLIYWASTRESGVPSRFSGSGSGTDFTLTISSLQPEDFATYYCKQSYDLFTFGGGTKVEIKRTVAAPSVFIFPPSDEQLKSGTASVVCLLNNFYPREAKVQWKVDNALQSGNSQESVTEQDSKDSTYSLSSTLTLSKADYEKHKVYACEVTHQGLSSPVTKSFNRGEC
notes: Chains 1-2: B7-H4 arm; chains 3-4: CD3 arm; IgG2
B2: B7-H4xCD3 bispecific antibody 1133 (bispecific antibody, IgG2)
heavy 1: EVQLVESGGGLVQPGGSLRLSCAVSGGSFSGYYWNWIRQPPGKGLEWIGEINHSGSATYNPSLKSRVTISVDTAKNSLYLQMNSLRAEDTAVYYCARGLYNWNVDHWGQGTLVTVSSASTKGPSVFPLAPCSRSTSESTAALGCLVKDYFPEPVTVSWNSGALTSGVHTFPAVLQSSGLYSLSSVVTVPSSNFGTQTYTCNVDHKPSNTKVDKTVERKCEVECPECPAPPVAGPSVFLFPPKPKDTLMISRTPEVTCVVVAVSHEDPEVQFNWYVDGVEVHNAKTKPREEQFNSTFRVVSVLTVVHQDWLNGKEYKCKVSNKGLPSSIEKTISKTKGQPREPQVYTLPPSREEMTKNQVSLTCEVKGFYPSDIAVEWESNGQPENNYKTTPPMLDSDGSFFLYSKLTVDKSRWQQGNVFSCSVMHEALHNHYTQKSLSLSPG
light 1: DIQMTQSPSSLSASVGDRVTITCRASQGIRNDLGWYQQKPGKAPKRLIYAASSLQSGVPSRFSGSGSGTDFTLTISSLQPEDFATYYCLQHNAYPRTFGGGTKVEIKRTVAAPSVFIFPPSDEQLKSGTASVVCLLNNFYPREAKVQWKVDNALQSGNSQESVTEQDSKDSTYSLSSTLTLSKADYEKHKVYACEVTHQGLSSPVTKSFNRGEC
heavy 2: B1 heavy 2
light 2: B1 light 2
notes: as for B1
B3: B7-H4xCD3 bispecific antibody 1037 (bispecific antibody, IgG2)
heavy 1: B2 heavy 1 with I37V, P40A
light 1: B2 light 1 with N92S, A93S
heavy 2: B1 heavy 2
light 2: B1 light 2
notes: as for B1
B4: B7-H4xCD3 bispecific antibody 1169 (bispecific antibody, IgG2)
heavy 1: B1 heavy 1
light 1: B1 light 1 with Y36H
heavy 2: B1 heavy 2
light 2: B1 light 2
notes: as for B1
B5: B7-H4xCD3 bispecific antibody 1136 (bispecific antibody, IgG2)
heavy 1: B2 heavy 1 with V24A, L78F
light 1: B2 light 1
heavy 2: B1 heavy 2
light 2: B1 light 2
notes: as for B1
B6: B7-H4xCD3 bispecific antibody 0999 (bispecific antibody, IgG2)
heavy 1: B1 heavy 1
light 1: B1 light 1 with M4L, S10T, T29I, Y36F, S56G, D70E, E81D, G92N
heavy 2: B1 heavy 2
light 2: B1 light 2
notes: as for B1
B7: B7-H4xCD3 bispecific antibody 1170 (bispecific antibody, IgG2)
heavy 1: B1 heavy 1
light 1: B1 light 1 with Y36L
heavy 2: B1 heavy 2
light 2: B1 light 2
notes: as for B1
B8: B7-H4xCD3 bispecific antibody 1134 (bispecific antibody, IgG2)
heavy 1: B2 heavy 1 with N52D, S54Q, A57T, T58K, L78F
light 1: B2 light 1
heavy 2: B1 heavy 2
light 2: B1 light 2
notes: as for B1

What was measured:
[1] = biological target: T2, human CD3 on primary human T cells (human, UniProt P07766 23-207; P04234 22-171); test: flow cytometry on primary human T cells, 37 C
T2 construct: whole, on cells; On cells the whole CD3/TCR complex is present
T2 sequence (P07766 23-207, chain 1 of 2): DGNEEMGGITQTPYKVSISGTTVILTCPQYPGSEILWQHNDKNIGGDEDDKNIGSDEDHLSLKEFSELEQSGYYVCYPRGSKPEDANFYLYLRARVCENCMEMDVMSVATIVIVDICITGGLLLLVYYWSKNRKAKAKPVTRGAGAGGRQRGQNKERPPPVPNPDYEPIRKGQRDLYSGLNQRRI
T2 sequence (P04234 22-171, chain 2 of 2): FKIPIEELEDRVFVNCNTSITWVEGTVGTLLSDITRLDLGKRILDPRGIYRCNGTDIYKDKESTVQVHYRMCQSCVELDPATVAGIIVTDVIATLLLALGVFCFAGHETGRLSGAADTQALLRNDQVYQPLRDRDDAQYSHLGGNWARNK

human B7-H4 on cells [2] = biological target: T1, human B7-H4 on cells; test: cell-based or functional assay
human B7-H4 on cells [3] = biological target: T1, human B7-H4 on cells; test: flow cytometry on MX-1 cells, 37 C

Row | Binder | EC50 [1] | T cell mediated tumor cell killing EC50, HCC1954-Luc (human B7-H4 on cells [2]) | T cell mediated tumor cell killing, OVCAR3-Luc (human B7-H4 on cells [2]) | T cell mediated tumor cell killing, T47D (human B7-H4 on cells [2]) | EC50 (human B7-H4 on cells [3])
1 | B1 | 5.56 nM | 2160 nM | 360 | 1910 | 13.1 nM
2 | B2 | 5.73 nM | 790 nM |  | 2810 | 1.47 nM
3 | B3 | 5.78 nM | 620 nM |  | 1270 | 3.64 nM
4 | B4 | 5.22 nM | 975 nM | 190 | 818 | 10 nM
5 | B5 | 5.7 nM | 500 nM |  | 3820 | 3.55 nM
6 | B6 | 9.77 nM | 277 nM | 90 | 258 | 3.9 nM
7 | B7 | 5.51 nM | 595 nM | 130 | 444 | 6.88 nM
8 | B8 | 6.9 nM | 1560 nM | 540 | 7330 | 17.6 nM
